Target: full-length (FL) BRAF^G469A, 6x-HIS/BRAF^G469A/FLAG (human, UniProt P15056 2-766)
Assay: cell-based or functional assay

full-length (FL) BRAF^G469A, 6x-HIS/BRAF^G469A/FLAG, sequence (P15056 2-766 G469A): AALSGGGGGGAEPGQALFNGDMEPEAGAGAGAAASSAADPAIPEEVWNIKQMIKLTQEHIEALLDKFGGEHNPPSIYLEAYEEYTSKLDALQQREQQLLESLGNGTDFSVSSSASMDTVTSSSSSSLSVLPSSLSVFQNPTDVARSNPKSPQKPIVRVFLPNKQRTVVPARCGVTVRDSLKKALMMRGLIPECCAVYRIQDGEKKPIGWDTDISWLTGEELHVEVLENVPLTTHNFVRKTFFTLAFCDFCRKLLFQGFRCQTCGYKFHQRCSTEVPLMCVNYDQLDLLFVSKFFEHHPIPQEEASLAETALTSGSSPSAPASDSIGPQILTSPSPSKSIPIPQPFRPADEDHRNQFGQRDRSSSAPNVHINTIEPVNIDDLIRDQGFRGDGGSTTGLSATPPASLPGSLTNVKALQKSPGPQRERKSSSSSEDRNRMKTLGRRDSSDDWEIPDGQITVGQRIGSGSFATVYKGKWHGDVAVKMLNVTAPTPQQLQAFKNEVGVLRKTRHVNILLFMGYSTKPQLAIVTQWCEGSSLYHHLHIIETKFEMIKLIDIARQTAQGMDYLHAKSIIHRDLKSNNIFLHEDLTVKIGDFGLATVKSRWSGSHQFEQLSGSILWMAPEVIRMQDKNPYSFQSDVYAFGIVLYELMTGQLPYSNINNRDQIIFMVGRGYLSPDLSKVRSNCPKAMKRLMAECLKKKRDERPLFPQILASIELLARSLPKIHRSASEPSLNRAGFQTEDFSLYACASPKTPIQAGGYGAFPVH

THHVNILLFM [null-braftide]
IC50, ELISA-based kinase assay (phosphorylation of kinase-dead MEK): 2.5 µM

Source: US20200360469A1 (UNIVERSITY OF THE SCIENCES, published 2020)
